B1: VENTX (parent)
chain: VFQHHQYLSPLERKRLAREMQLSE

Variants of: B1
Test: protein stability index of a GFP-peptide fusion (GPS, HEK-293T) (PSI 1-6); higher = more stable
Conditions: c terminus: a fixed tail appended
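Also: lentivirally expressed fusions sorted by FACS into six bins by GFP to DsRed ratio, PSI derived from sequencing read proportions per bin multiplied by bin number.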

Protein stability index, by site and new letter:
Y7: G 2.34 | M 3.04 | K 2.71 | D 3.84 | F 2.99 | R 2.42 | I 2.54 | L 2.5 | E 3.22 | C 2.5 | V 3.48 | H 2.33 | P 3.33 | W 2.11 | Q 3.27 | S 2.68 | N 2.36 | T 3.49 | A 2.98
L16: I 2.71 | T 2.71 | P 2.78 | M 2.48 | G 2.9 | R 2.33 | N 2.92 | V 2.75 | Q 2.7 | Y 2.31 | H 2.82 | K 2.52 | E 3.1 | W 2.01 | D 3.03 | C 2.62 | S 2.8 | F 2.28 | A 2
R18: G 2.68 | D 2.77 | P 2.13 | T 2.9 | I 2.67 | H 2.74 | Q 2.73 | F 2.21 | L 2.33 | A 2.28 | W 2.21 | E 2.8 | M 2.21 | Y 2 | V 1.63 | S 3 | K 2.65 | C 2.58 | N 2.34
F2: T 3.05 | C 3.08 | A 2.11 | M 3.1 | Q 4 | Y 3.01 | G 3.57 | H 3.38 | L 3.22 | E 4.48 | P 4.18 | R 3.02 | N 2.97 | D 4.44 | S 3.91 | I 3.12 | K 3.61 | V 2.55 | W 2.42
S9: P 2.88 | E 2.86 | C 2.17 | Y 2.21 | H 2.38 | A 2 | I 1.69 | D 2.73 | R 2.64 | T 2.21 | M 2.33 | N 2.59 | Q 3.25 | F 1.99 | G 2.38 | L 2.22 | W 1.52 | V 2.08 | K 2.39
P10: W 1.96 | M 2.23 | D 2.31 | Y 2.54 | F 1.91 | L 2.67 | C 2.32 | I 2.42 | K 2.52 | N 2.82 | V 2.63 | T 1.86 | E 2.91 | Q 2.46 | G 2.23 | A 2.62 | S 2.89 | H 2.73
A17: R 2.98 | M 2.32 | D 2.45 | F 2.5 | E 2.93 | T 2.97 | L 2.79 | H 2.24 | I 2.36 | K 2.75 | C 1.84 | N 2.38 | Y 3.02 | W 2.24 | G 2.69 | S 3.1 | P 2.98 | Q 2.59 | V 2.14
E12: V 2.74 | C 1.98 | S 2.74 | N 2.56 | L 2.13 | T 2.08 | A 1.96 | Q 2.33 | K 1.82 | Y 2.19 | P 2.99 | R 2.45 | M 2.74 | W 1.8 | G 2.07 | F 2.58 | D 2.39 | H 2.21 | I 2.66
V1: Y 2.36
L8: A 2.65 | F 2.62 | C 2.22 | Y 2.32 | H 2.75 | M 2.55 | N 2.72 | G 2.42 | S 2.09 | K 3.6 | I 3.02 | Q 2.89 | T 2.4 | R 2.25 | W 1.83 | V 2.41 | P 2.52 | E 3.66 | D 3.31
H4: L 2.89 | G 3.26 | V 2.7 | W 2.03 | E 3.52 | N 2.85 | T 3.06 | F 1.69 | S 2.91 | Q 3.5 | K 2.5 | C 2.56 | M 2.31 | A 3.37 | I 2.43 | D 3.68 | Y 2.21 | P 3.27 | R 2.37
K14: H 1.97 | T 2.58 | G 2.39 | P 2.4 | I 2.88 | E 3.3 | F 1.75 | D 3.01 | R 2.67 | M 3.11 | S 2.81 | A 2.67 | W 1.81 | V 2.63 | Q 2.12 | L 2.19 | C 2.98 | N 2.83 | Y 2.58
E19: H 2.17 | L 1.81 | A 2.08 | F 1.76 | C 1.91 | N 3.28 | D 2.67 | I 1.86 | G 2.06 | K 1.94 | M 1.78
L11: R 2.31 | N 3.2 | Y 2.66 | M 2.65 | P 2.1 | V 2.53 | G 1.95 | Q 2.73 | H 2.77 | S 2.64 | D 2.97 | A 3 | E 3.41 | K 3.03 | F 2.42 | T 2.93 | C 2.4 | W 2.84 | I 2.4
R13: Q 2.94 | Y 1.77 | T 2.32 | C 2.45 | E 2.44 | D 2.56 | N 3.31 | K 2.62 | H 2.07 | G 1.83 | I 2.26 | M 2.43 | F 1.92 | V 2.4 | S 2.44 | A 2.32 | L 2.66 | P 2.06 | W 1.87
Q3: C 1.85 | P 2.98 | S 3.81 | N 3.05 | H 2.11 | Y 2.56 | G 2.82 | K 3 | F 1.66 | W 1.79 | L 1.29 | A 3.03 | I 2.07 | R 2.17 | D 4.04 | E 3.84 | M 2.27 | V 2.78 | T 2.96
H5: G 3.71 | I 2.08 | N 2.83 | A 2.5 | P 3.21 | R 1.93 | S 2.63 | F 2.96 | Y 2.43 | C 2.17 | E 3.71 | D 3.47 | T 4.21 | M 3.19 | L 2.42 | K 2.94 | W 1.96 | Q 3.01 | V 2.78
Q6: R 2.47 | S 2.3 | K 2.69 | W 2.17 | P 2.09 | V 2.42 | M 2.56 | A 2.75 | D 3.23 | H 3.06 | Y 2.09 | L 2.02 | F 1.84 | I 2.17 | G 2.51 | C 1.83 | T 2.75 | E 3.66 | N 3.05
R15: D 2.6 | V 1.92 | C 1.99 | Y 2.04 | S 1.97 | M 2.02 | N 2.85 | I 2.09 | P 2.36 | L 2.02 | T 2.97 | F 1.72 | H 2.54 | A 1.79 | K 2.44 | W 2.21 | Q 2.57 | E 2.41 | G 2.6

Reference: the supplement of paper PMC10567573
